{"source": "patent US20150065561A1", "about": "(GEORGIA STATE UNIVERSITY RESEARCH FOUNDATION, published 2015)", "biological_target": "T1, CYLD (UniProt Q9NQC7 1-956, limits assumed)", "T1 construct": "also called deubiquitinase CYLD; cylindromatosis", "T1 sequence (looked up)": "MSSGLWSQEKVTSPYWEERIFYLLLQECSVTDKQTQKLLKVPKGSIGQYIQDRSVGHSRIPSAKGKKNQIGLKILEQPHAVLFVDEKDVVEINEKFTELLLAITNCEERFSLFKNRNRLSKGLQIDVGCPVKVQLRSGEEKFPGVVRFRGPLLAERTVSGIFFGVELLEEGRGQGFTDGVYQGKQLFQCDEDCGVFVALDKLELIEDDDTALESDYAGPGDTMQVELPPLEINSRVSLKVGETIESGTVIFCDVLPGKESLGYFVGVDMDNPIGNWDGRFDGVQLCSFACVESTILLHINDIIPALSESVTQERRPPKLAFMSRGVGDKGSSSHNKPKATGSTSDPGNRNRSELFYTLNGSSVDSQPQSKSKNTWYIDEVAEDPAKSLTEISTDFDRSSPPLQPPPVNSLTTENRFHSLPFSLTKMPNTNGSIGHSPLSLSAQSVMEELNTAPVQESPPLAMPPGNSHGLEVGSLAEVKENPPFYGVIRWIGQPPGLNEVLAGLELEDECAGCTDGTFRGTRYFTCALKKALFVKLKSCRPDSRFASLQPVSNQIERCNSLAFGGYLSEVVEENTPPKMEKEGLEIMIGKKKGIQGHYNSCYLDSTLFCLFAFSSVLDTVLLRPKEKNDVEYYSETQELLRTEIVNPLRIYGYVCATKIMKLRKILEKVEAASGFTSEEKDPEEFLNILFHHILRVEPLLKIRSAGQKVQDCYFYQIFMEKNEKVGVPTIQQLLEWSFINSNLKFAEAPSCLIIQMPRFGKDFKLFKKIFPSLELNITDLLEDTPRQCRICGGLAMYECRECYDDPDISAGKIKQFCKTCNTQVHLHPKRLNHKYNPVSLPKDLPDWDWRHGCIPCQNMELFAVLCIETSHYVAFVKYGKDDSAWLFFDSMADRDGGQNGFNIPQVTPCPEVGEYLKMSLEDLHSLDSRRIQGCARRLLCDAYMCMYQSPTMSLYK", "assay": "co-immunoprecipitation", "method": "Western blot, immunoprecipitation and ubiquitination experiments were performed as follows. Western blots were performed using whole-cell extracts, separated on 8 or 10% SDS-PAGE gels, and transferred to polyvinylidine di& uoride membranes. The membrane was blocked with a solution of PBS containing 0.1% Tween 20 (PBS-T) and 5% BSA. The membrane was then incubated in a 1:2,000 dilution of a primary antibody in 5% BSA-PBS-T. After three washes in PBS-T, the membrane was incubated with 1:5,000 dilution of the corresponding secondary antibody in 3% non-fact skim milk-PBS-T. Respective proteins were visualized by using enhanced chemiluminescence detection reagents, according to the manufacturer's instructions. To conduct immunoprecipitation analysis, cell lysates were incubated with 1 μg of primary antibodies overnight, at 4° C., followed by 2-h incubation with protein A/G-agarose beads (Invitrogen). Immunoprecipitates were then suspended in a sample buffer, separated on 8% SDS-PAGE, transferred to polyvinylidine difluoride membrane, and detected by immunoblot analysis, as described above. […]", "data": [{"binder": "CHIP (enzyme, UniProt Q9UNE7 1-303, looked up) MKGKEEKEGGARLGAGGGSPEKSPSAQELKEQGNRLFVGRKYPEAAACYGRAITRNPLVAVYYTNRALCYLKMQQHEQALADCRRALELDGQSVKAHFFLGQCQLEMESYDEAIANLQRAYSLAKEQRLNFGDDIPSALRIAKKKRWNSIEERRIHQESELHSYLSRLIAAERERELEECQRNHEGDEDDSHVRAQQACIEAKHDKYMADMDELFSQVDEKRKKRDIPDYLCGKISFELMREPCITPSGITYDRKDIEEHLQRVGHFDPVTRSPLTQEQLIPNLAMKEVIDAFISENGWVEDY", "values": [{"measurement": "binding result", "value": "no binding"}]}]}
